The values that follow come from paper PMC10397247.

Assay [1] concerns the target T1, 4H492-bH.
T1 chain: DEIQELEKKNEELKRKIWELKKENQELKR
Description: two-hybrid library CCNG1.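 Further: natural log of median RNA to DNA barcode read ratio; higher means stronger binding.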

Assay [2] has as its target T2, 4H741-bH.
T2 chain: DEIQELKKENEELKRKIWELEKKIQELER
Briefly: two-hybrid library CCNG1.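 Further: natural log of median RNA to DNA barcode read ratio; higher means stronger binding.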

In assay [3] the target is T3, 4H348-bH.
T3 chain: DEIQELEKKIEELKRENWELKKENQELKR
Briefly: two-hybrid library CCNG1.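 Further: natural log of median RNA to DNA barcode read ratio; higher means stronger binding.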

Assay [4] has as its target T4, 4H3057-bH.
T4 chain: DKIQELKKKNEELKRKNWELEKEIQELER
Briefly: two-hybrid library CCNG1.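 Further: natural log of median RNA to DNA barcode read ratio; higher means stronger binding.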

Assay [5] addresses T5, 4H319-bH.
T5 chain: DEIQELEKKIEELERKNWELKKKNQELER
Briefly: two-hybrid library CCNG1.

For assay [6], the target named is T6, 4H40-bH.
T6 chain: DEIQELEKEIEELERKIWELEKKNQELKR
Description: two-hybrid library CCNG1.

Assay [7] concerns the target T7, 4H3277-bH.
T7 chain: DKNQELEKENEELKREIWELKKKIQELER
Briefly: two-hybrid library CCNG1.

Assay [8] addresses T8, 4H477-bH.
T8 chain: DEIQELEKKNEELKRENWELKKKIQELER
Briefly: two-hybrid library CCNG1.

In assay [9] the target is T9, P8-AA.
T9 chain: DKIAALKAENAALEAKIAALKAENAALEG
Briefly: two-hybrid library CCmax. The conditions noted are these: mean of both orientations.

For assay [10], the target named is T10, P3-AA.
T10 chain: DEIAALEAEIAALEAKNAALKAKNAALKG
Briefly: two-hybrid library CCmax. The conditions noted are these: mean of both orientations.

Assay [11] concerns the target T11, P1-AA.
T11 chain: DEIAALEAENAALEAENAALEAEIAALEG
Briefly: two-hybrid library CCmax. The conditions noted are these: mean of both orientations.

Assay [12] addresses GCN2_T. Description: two-hybrid library CCmax.
For assay [13], the target named is T12, P4-AA.
T12 chain: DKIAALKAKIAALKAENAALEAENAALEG
Description: two-hybrid library CCmax. Conditions: mean of both orientations.

The target in assay [14] is T13, AP7-AA.
T13 chain: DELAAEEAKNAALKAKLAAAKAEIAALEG
Briefly: two-hybrid library CCmax.

The target in assay [15] is T14, P12-AA.
T14 chain: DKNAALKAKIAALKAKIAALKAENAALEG
Description: two-hybrid library CCmax. The conditions noted are these: mean of both orientations.

Assay [16] deals with T15, P11-AA.
T15 chain: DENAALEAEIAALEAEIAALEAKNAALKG
Description: two-hybrid library CCmax. Conditions: mean of both orientations.

Assay [17] addresses T16, P10-AA.
T16 chain: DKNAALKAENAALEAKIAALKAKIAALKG
Briefly: two-hybrid library CCmax. Conditions: mean of both orientations.

Assay [18] concerns the target T17, AP8-AA.
T17 chain: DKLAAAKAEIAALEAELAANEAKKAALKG
Description: two-hybrid library CCmax. Conditions: mean of both orientations.

Assay [19] concerns the target T18, P2-AA.
T18 chain: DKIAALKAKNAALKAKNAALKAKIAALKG
Briefly: two-hybrid library CCmax. Conditions: mean of both orientations.

The target of assay [20] is T19, P7-AA.
T19 chain: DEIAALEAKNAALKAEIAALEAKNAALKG
Briefly: two-hybrid library CCmax. The conditions noted are these: mean of both orientations.

For assay [21], the target named is T20, P9-AA.
T20 chain: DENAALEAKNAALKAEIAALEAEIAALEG
Briefly: two-hybrid library CCmax. Conditions: mean of both orientations.

Assay [22] has as its target T21, 4H462-bN.
T21 chain: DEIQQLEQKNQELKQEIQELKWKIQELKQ
Briefly: two-hybrid library CCNG1.

Assay [23] addresses T22, 4H568-bN.
T22 chain: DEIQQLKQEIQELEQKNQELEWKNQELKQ
Briefly: two-hybrid library CCNG1.

For assay [24], the target named is T23, 4H918-bN.
T23 chain: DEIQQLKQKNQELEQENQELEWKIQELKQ
Description: two-hybrid library CCNG1.

Assay [25] addresses T24, 4H687-bN.
T24 chain: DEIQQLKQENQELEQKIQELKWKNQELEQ
Description: two-hybrid library CCNG1.

The target in assay [26] is T25, 4H4001-bN.
T25 chain: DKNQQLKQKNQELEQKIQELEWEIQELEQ
Briefly: two-hybrid library CCNG1.

In assay [27] the target is T26, 4H3843-bN.
T26 chain: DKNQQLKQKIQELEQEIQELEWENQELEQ
Briefly: two-hybrid library CCNG1.

Assay [28] concerns the target T27, 4H883-bN.
T27 chain: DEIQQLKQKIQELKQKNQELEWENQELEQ
Briefly: two-hybrid library CCNG1.

For assay [29], the target named is T28, 4H797-bN.
T28 chain: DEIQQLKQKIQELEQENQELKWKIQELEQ
Description: two-hybrid library CCNG1.

The target in assay [30] is T29, 4H967-bN.
T29 chain: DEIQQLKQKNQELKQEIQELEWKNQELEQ
Description: two-hybrid library CCNG1.

In assay [31] the target is T30, 4H607-bN.
T30 chain: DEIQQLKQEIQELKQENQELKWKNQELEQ
Briefly: two-hybrid library CCNG1.

The target in assay [32] is T31, 4H72-bN.
T31 chain: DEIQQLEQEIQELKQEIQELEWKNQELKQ
Briefly: two-hybrid library CCNG1.

The target of assay [33] is T32, 4H3782-bN.
T32 chain: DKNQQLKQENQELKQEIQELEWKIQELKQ
Description: two-hybrid library CCNG1.

Assay [34] addresses T33, 4H953-bN.
T33 chain: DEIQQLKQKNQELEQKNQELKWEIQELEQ
Briefly: two-hybrid library CCNG1.

Assay [35] concerns the target T34, 4H370-bN.
T34 chain: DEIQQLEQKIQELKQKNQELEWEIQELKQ
Briefly: two-hybrid library CCNG1.

Assay [36] addresses T35, 4H584-bN.
T35 chain: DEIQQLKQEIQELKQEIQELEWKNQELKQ
Description: two-hybrid library CCNG1.

Assay [37] addresses T36, 4H619-bN.
T36 chain: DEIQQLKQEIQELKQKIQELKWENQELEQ
Description: two-hybrid library CCNG1.

Assay [38] has as its target T37, 4H3974-bN.
T37 chain: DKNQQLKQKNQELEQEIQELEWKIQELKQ
Briefly: two-hybrid library CCNG1.

The target in assay [39] is T38, 4H906-bN.
T38 chain: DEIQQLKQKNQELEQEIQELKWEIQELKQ
Briefly: two-hybrid library CCNG1.

Assay [40] addresses T39, 4H850-bN.
T39 chain: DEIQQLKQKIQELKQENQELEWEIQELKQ
Briefly: two-hybrid library CCNG1.

Assay [41] concerns the target T40, 4H3817-bN.
T40 chain: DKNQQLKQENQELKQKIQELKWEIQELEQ
Description: two-hybrid library CCNG1.

The target in assay [42] is T41, 4H3858-bN.
T41 chain: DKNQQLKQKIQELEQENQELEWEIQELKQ
Description: two-hybrid library CCNG1.

For assay [43], the target named is T42, 4H570-bN.
T42 chain: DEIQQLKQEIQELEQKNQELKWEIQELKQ
Briefly: two-hybrid library CCNG1.

The target in assay [44] is T43, 4H454-bN.
T43 chain: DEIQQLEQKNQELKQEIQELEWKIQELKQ
Briefly: two-hybrid library CCNG1.

Assay [45] concerns the target T44, 4H754-bN.
T44 chain: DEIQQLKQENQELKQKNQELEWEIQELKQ
Briefly: two-hybrid library CCNG1.

Assay [46] has as its target T45, 4H3427-bN.
T45 chain: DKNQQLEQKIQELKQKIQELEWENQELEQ
Briefly: two-hybrid library CCNG1.

Assay [47] addresses T46, 4H908-bN.
T46 chain: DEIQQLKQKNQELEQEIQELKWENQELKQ
Briefly: two-hybrid library CCNG1.

Assay [48] has as its target T47, 4H717-bN.
T47 chain: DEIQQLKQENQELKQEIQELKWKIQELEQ
Briefly: two-hybrid library CCNG1.

In assay [49] the target is T48, 4H338-bN.
T48 chain: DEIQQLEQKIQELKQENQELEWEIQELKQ
Briefly: two-hybrid library CCNG1.

For assay [50], the target named is T49, 4H3855-bN.
T49 chain: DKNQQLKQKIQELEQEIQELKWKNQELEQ
Briefly: two-hybrid library CCNG1.

In assay [51] the target is T50, 4H626-bN.
T50 chain: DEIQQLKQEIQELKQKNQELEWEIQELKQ
Briefly: two-hybrid library CCNG1.

The target in assay [52] is T51, 4H3926-bN.
T51 chain: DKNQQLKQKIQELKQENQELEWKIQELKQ
Briefly: two-hybrid library CCNG1.

For assay [53], the target named is T52, O9-bP.
T52 chain: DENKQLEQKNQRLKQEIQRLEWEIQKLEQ
Briefly: two-hybrid library CCNG1.

For assay [54], the target named is T53, 4H591-bN.
T53 chain: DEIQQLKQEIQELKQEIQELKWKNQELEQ
Description: two-hybrid library CCNG1.

Assay [55] has as its target T54, 4H3628-bN.
T54 chain: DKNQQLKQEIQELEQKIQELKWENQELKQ
Description: two-hybrid library CCNG1.

Like-named read-outs stand apart in the source and are kept apart here.

B1: 4H3057-bH (peptide)
chain: DKIQELKKKNEELKRKNWELEKEIQELER
Regarding B1, the interaction score was -1.13 in assay [1]; -1.52 in [2]; -0.361 in assay [3]; -0.611 in assay [4]; -1.81 in assay [5]; -1.77 in [6]. Further, the interaction score in assay [7] was -1.01; in [8], -1.13.

B2: AP7-AA (peptide)
chain: DELAAEEAKNAALKAKLAAAKAEIAALEG
In the case of B2, the interaction score in assay [9] is -0.66; in assay [10], -1.88; in assay [11], -1.52; in assay [12], -2.13; in assay [13] it was -1.42; in [14], -1.7. The interaction score is -1.62 in [15]; -0.965 in [16]; -0.0128 in assay [17]; -2.81 in [18]; -1.94 in [19]; -2.09 in [20]. The same molecule came in with an interaction score in assay [21] of -2.24.

B3: AP6-AA (peptide)
chain: DEEAALEAKAAALKAELAANEAKLAAAKG
Turning to B3, the interaction score is -1.22 in [9]; -1.95 in [10]; -1.88 in assay [11]; -1.54 in assay [12]; -2.36 in [13]; -1.62 in assay [14] (mean of both orientations). Besides, the interaction score in assay [15] was -1.57; in assay [16], -1.25; in assay [17] it was -0.802; in assay [18], -1.59; in assay [19], -1.88; in [20], -0.655. In assay [21], this molecule returned an interaction score of -0.901.

B4: 4H370-bN (peptide)
chain: DEIQQLEQKIQELKQKNQELEWEIQELKQ
For the molecule B4, the interaction score in [22] was -1.49; in assay [23] it was 0.649; in [24], -0.831; in [25] it was -1.17; in [26], -0.655; in assay [27], -0.715. For the same molecule, the interaction score is -1.39 in [28]; -0.598 in assay [29]; -0.814 in [30]; -0.679 in assay [31]; -0.189 in [32]; -0.329 in assay [33]. Further, the interaction score was -1.96 in assay [34] and 0.966 in assay [35].

B5: 4H3817-bN (peptide)
chain: DKNQQLKQENQELKQKIQELKWEIQELEQ
Take B5: the interaction score in assay [36] is -2.15; in assay [37], -0.743; in [38], -0.487; in assay [39] it was -1.83; in assay [40], -0.947; in assay [41], -0.754. Moreover, the interaction score in assay [42] is -0.555; in [43], -1.92.

B6: 4H338-bN (peptide)
chain: DEIQQLEQKIQELKQENQELEWEIQELKQ
B6: the interaction score in [23] is 0.409; in [24], -0.295; in [44], -0.967; in [25], 0.0368; in [26] it was -0.385; in assay [45], -0.701. Moreover, the interaction score in assay [46] was -0.828; in [47], -0.434; in assay [28] it was -1.26; in [29], -1.45; in assay [30], 0.117; in assay [48] it was -1.16. Further, the interaction score in [49] was -1.01; in [31], -1.19; in [50] it was -0.12; in [32], -0.606; in [33], -0.966; in [34], -1.33.

B7: 4H3628-bN (peptide)
chain: DKNQQLKQEIQELEQKIQELKWENQELKQ
Regarding B7, the interaction score in [51] was -2.08; in assay [25], -0.529; in [52] it was -0.307; in assay [38] it was -0.134; in [39] it was 0.069; in assay [53], -0.345. Further, the interaction score in [40] was -1.18; in assay [41], -1.03; in assay [54] it was -0.603; in [42], -2.07; in assay [43], -1.33; in assay [55], -0.36.
